Assay results taken from US20210292393A1 (published 2021).

B1: antibody 536 (antibody, V domains shown)
VH: QVQLVESGGGVVQPGRSLRLSCAASGFTFSSYVMHWVRQAPGKGLEWVALISYDGSNKYYADSVKGRFTISRDNSKNTLYLQMNSLRAEDTAVYYCARGGHIRVGRYFDWLISYFDYWGQGTLVTVSS
VL: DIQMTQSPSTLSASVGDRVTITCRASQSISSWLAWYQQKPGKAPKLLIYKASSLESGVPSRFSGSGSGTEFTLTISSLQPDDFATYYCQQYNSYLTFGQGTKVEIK
B2: antibody 548 (antibody, V domains shown)
VH: QVQLVESGGGVVQPGRSLRLSCAASGFTFSSYAMHWVRQAPGKGLEWVAVISYDGSNKYYADSVKGRFTISRDNSKNTLYLQMNNLRAEDTAVYYCAKSGSGSYLSAFDIWGQGTMVTVSS
VL: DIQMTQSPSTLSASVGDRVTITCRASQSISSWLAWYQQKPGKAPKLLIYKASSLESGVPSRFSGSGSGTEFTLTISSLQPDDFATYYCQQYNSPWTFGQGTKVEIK
B3: antibody 546 (antibody, V domains shown)
VH: QVQLVESGGGVVQPGRSLRLSCAASGFTFSSYGMHWVRQAPGKGLEWVAVIWYDGSNKYYADSVKGRFTISRDNSKNTLYLQMNSLRAEDTAVYYCARNCGGDCVAGDGFDYWGQGTLVTVSS
VL: DIQMTQSPSSLSASVGDRVTITCRASQSISSYLNWYQQKPGKAPNLLIYAASSLQSGVPSRFSGSGSGTDFTLTISSLQPEDFATYYCQQSYSALTWTFGQGTKVEIK
B4: antibody 547 (antibody, V domains shown)
VH: QVHLVESGGGVVQPGRSLRLSCAASGFALSSYAMHWVRQPPGKGLEWVALISYDGSVKKYADSVKGRITVSGDNSRNTLHLQINSLRADDTAVYYCVRGGVSGPNSFDLWGHGTMVTVSS
VL: DVVLTQSPLSLPVTLGQPASISCRSSQSLEYSVGNTYVNWFQQRPGQSPRRLIYKVSNRDSGVPDRFSGSGSGTDFTLQISRVEADDVGIYYCMQGTHWPVTFGQGTKVEIK
B5: antibody 556 (antibody, V domains shown)
VH: QVQLVESGGGVVQPGRSLRLSCAASGFTFSSYAMHWVRQAPGKGLEWVAVISYDGSDKYYADSVKGRVTISRDNSKNTLYLQMNSLRVEDTAVFYCAKDDCSGGVCFPDYWGQGTLVTVSS
VL: QSALTQPASVSGSPGQSITISCTGTSSDVGGYNYVSWYQQHPGKAPKLMIYEVSIRPSGVSNRFSGSKSGNTASLTISGLQAEDEAAYYCSSYTSSSTLVFGGGTKLTVL
B6: antibody 560 (antibody, V domains shown)
VH: EVQLVESGGGLVQPGGSLRLSCAASGFTISSNYMSWVRQAPGKGLEWVSVIYSGGSTYYADSVKGRFTISRDNSKNTLYLQMNSLRAEDTAVYYCAREEGEWEKDYYGMDVWGQGTTVTVSS
VL: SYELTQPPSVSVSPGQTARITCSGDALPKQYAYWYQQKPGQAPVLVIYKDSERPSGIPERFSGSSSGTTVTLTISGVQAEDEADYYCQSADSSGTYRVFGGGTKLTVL
B7: antibody 533 (antibody, V domains shown)
VH: GVQLVESGGVVVQPGGSLRLSCAASGFSFDDYTMHWVRQAPGKGLEWVSLVSWDGGTTYYTDSVKGRFTISRDNSKNSLYLQMNSLRTEDTALYFCAKDSGRIVPAATFDYWGQGTLVTVSS
VL: DIQMTQSSSSLSASVGDRVTITCRASQDISNYLAWFQQKPGKAPKSLIYAASSLQSGVPSKFSGSGSGTDFTLTISSLQPEDFATYYCQQYYTYPLTFGGGTKVEIK
B8: antibody 545 (antibody, V domains shown)
VH: QVQLVQSGSELKKPGASVKVSCKASGYTFTSYAMNWVRQAPGQGLEWMGWINTNTGNPTYAQGFTGRFVFSLDTSVSTAYLQISVLKAEDTGVYYCARDHELPNSSSWFGHFEYWGQGTLVTVSS
VL: SYELTQPPSVSVSPGQTARITCSGDALPKQYAYWYQQKAGQAPVLVIYKDSERRSGIPERFSGSSSGTTVTLTISGVQAEDEADYYCQSADSSGTSVVFGGGTKLTVL
B9: antibody 537 (antibody, V domains shown)
VH: QVQLQQWGAGLLKPSETLSLTCAVYGGSFSGYYWSWIRQPPGKGLEWIGEINHSGSTNYNPSLKSRVTISVDTSKNQFSLKLSSVTAADTAVYYCARGLYYDMGGGFDYWGQGTLVTVSS
VL: not shown
B10: antibody 543 (antibody, V domains shown)
VH: EVQLVESGGGLVQPGRSLRLSCAASGFTFHDYAMHWVRQAPGKGLEWVSGISWNSGSIGYADSVKGRFTISRDNAKNSLYLQMNSLRAEDTALYYCAKDTFGSSSWYRGDSYYYYGMDVWGQGTTVTVSS
VL: QSALTQPASVSGSPGQSITISCTGTSSDVGGYNYVSWYQQHPGKAPKLMIYEVSNRPSGVSNRFSGSKSGNTASLTISGLQAEDEADYYCSSYTSSSTQRYVVFGGGTKLTVL
B11: antibody 541 (antibody, V domains shown)
VH: QVQLVQSGAEVKKPGASVKVSCKASGYTFTSYYVHWVRQAPGQSLEWMGVISPSTGSTTYAQNFQGRVTMTRDTSTTTVYMELSSLRSEDTAVYYCARDDYYDSTRYFDLWGRGTLVTVSS
VL: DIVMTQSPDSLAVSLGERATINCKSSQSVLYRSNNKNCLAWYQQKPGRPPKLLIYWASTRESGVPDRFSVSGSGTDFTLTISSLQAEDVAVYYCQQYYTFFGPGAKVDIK
B12: anti-SARS-CoV-2 antibody 1081 (antibody, V domains shown)
VH: EVQLVQSGAEVKKPGESLKISCKRSGYSFTTYWIGWVRQMPGKGLEWMGSIYPGDSDTRYSPSFQGQVTISADKSISTAYLQWSSLKASDTAMYYCASQEVPGYYYYMDVWGKGTTVTVSS
VL: DIQMTQSPSSLSASVGDRVTITCRASQSISSYLHWYQQKPGKAPKLLIYAASSLQSGVPSRFSGSGSGTDFTLTISSLQPEDFATYYCQQTYSTHTWTFGQGTKVEIK
B13: anti-SARS-CoV-2 antibody 1000 (antibody, V domains shown)
VH: EVQLVESGGGLVQPGRSLRLSCAASGFTFDDYAMHWVRQAPGEGLEWVSGISWNSGSIGYADSVKGRFTISRDNAKNSLYLQMNSLRAEDTALYYCAKDTRFSFGTIAAAVSGYGMDVWGQGTTVTVSS
VL: QSALTQPASVSGSPGQSITISCTGTSSDVGIFNLVSWYQQHPGKAPKLMIYEVTKRPSGVSNRFSGSKSGNTASLTISGLQAEDEADYYCCSYAGSYVFGTGTKVTVL
B14: anti-SARS-CoV-2 antibody 923 (antibody, V domains shown)
VH: EVQLVESGGGVVRPGGSLRLSCAASGFIFDDYDMTWVRQAPGKGLEWVSGISWNGGNTGYADSVKGRFTISRDNAKNSLYLQMNSLRAEDTALYHCAVIMSPIPRYSGYDWAGGAFDIWGQGTMVTVSS
VL: SSELTQDPAVSVALGQTVRITCQGDSLRSYYASWYQQKPGQVPILVIYDKNNRPSGIPDRFSGSSSGNTASLTITGAQAEDEADYYCNSRDSSGNAVVFGGGTKLTVL
B15: anti-SARS-CoV-2 antibody 966 (antibody, V domains shown)
VH: QVQLVESGGGVVQPGRSLRLSCAASEFTFSSYGMHWVRQAPGKGLEWVAVISHDGSNEYYADSVKGRFTISRDNSKNTLYLQMNSLRAEDTAVYYCAKWRGPHRGYYDRSGYYLGSSRDDYWGQGTLVTVSS
VL: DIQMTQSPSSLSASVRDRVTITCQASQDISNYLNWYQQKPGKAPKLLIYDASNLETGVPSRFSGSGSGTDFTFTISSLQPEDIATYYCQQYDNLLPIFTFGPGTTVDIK
B16: anti-SARS-CoV-2 antibody 1009 (antibody, V domains shown)
VH: QLQLQESGPGLVKPSQTLSLTCTVSGGSISSGSYYWSWIRQPAGKGLEWIGSIYTSGSTYYNPSLKSRVTISVDTSKNQFSLKLSSVTAADTAVYYCARKNWLQGSFDYWGQGTLVIVSS
VL: NFMLTQPHSVSESPGKTVTISCTRSSGSIANNYVQWYQQRPGSAPTTVIYEDNQRPSGVPDRFSGSIDSSSNSASLTISGLKTEDEADYYCQSYDTSNHGVFGGGTKLTVL
B17: anti-SARS-CoV-2 antibody 1015 (antibody, V domains shown)
VH: EVQLVESGGGLVQPGGSLRLSCAASGFTFSSYWMHWVRQAPGKGLVWVSHINSDGSSTSYADSVKGRFTISRDNAKNTLYLQMNSLRAEDTAVYYCARGLRYFDLDVWGQGTTVTVSS
VL: QSVLTQPPSVSEAPRQRVTISCSGSSSNIGNNAVNWYQQLPGKAPKLLIFYDDLLPSGVSDRFSGSKSGTSASLAISGLQSEDEADYYCAAWDDSLNGGVFGGGTKLTVL
B18: anti-SARS-CoV-2 antibody 933 (antibody, V domains shown)
VH: QVQLVQSGAEVKKPGASVKVSCKASGYTFTTYDINWVRQATGQGLEWMGWMNPNSGYTDSAQKFQGRVTMTRNTSISTAYMELSSLRSEDTAVYYCASGRGVKTYYFDYWGQGTLVTVSS
VL: SYELTQPPSVSVSPGQTASITCSGDKLGDKSACWYQQKPGQSPVLVICQDTKRPSGIPERFSGSNSGNTATLTISGTQAMDEADYYCQAWDSRTVVFGGGTKLTVL
B19: anti-SARS-CoV-2 antibody 989 (antibody, V domains shown)
VH: QVQLQESGPGLVKPSQTLSLTCTVSGGSISSGSYYWSWIRQPAGKGLEWIGRIYTSGSTNYNPSLKSRVTMSVDTSKNHFSLKLRSVTAADTAVYYCARGIAVAGDDDYYYYYGLDVWGQGTTVTVSS
VL: SYELTQPPSVSVSPGQTARITCSGDALPKQYAYWYQQKPGQAPVMVINKDSERPSGIPERFSGSSSGTTVTLTISGVQAEDEADYYCHSADSSGTYWVFGGGTKLTVL
B20: anti-SARS-CoV-2 antibody 1012 (antibody, V domains shown)
VH: EVQVVESGGGLVQPGGSRRLSCTASGFTLRNYWMSWVRQAPGKGLEWVANIKQDGSEKYYVDSVKGRFTISRDNAKNSLYLQMDSLRAEDTAVYYCARGGRYCPGGSCPRWGRGTLVTVSS
VL: DIQMTQSPSSLSASVGDRVTITCQASQDISNFLNWYQLKPGEAPTLLIFDASKLETGVPSRFSGTGFGTDFTFTISSLQPEDTATYYCQQYDDLTSITLGQGTRLEIK
B21: anti-SARS-CoV-2 antibody 1037 (antibody, V domains shown)
VH: QITLKESGPTLVKPTQTLTLTCTFSGFSLSTSGVGVGWIRQPPGKALEWLALIYWDDDKRYSPSLKSRLTITKDTSKNQVVLTMTNMDPVDTATYYCAHHTITRINDYWGQGTLVTVSS
VL: QSALTQPASVSGSPGQSITISCTATSSDVGAYNYVSWYQQHPGKAPKLMIYDVSKRPSGVSNRFSGSKSGNTASLTISGLQAEDEADYYCSSYTSSSTVFGGGTKLTVL
B22: anti-SARS-CoV-2 antibody 1075 (antibody, V domains shown)
VH: QVQLVQSGAEVKKPGASVKVSCKVSGYTLIELSMHWVRQAPGKGLEWMGGFDPEDGETIYAQKFQGRVTMTEDTSTDTAYMELSSLRSEDTAVYYCATEWAYYGSGSYLGYWGQGTLVTVSS
VL: EIVMTQSPATLSVSPGERATLSCRASQSVSSNLAWFQQKPGQAPRLLIYGASTRVTVIPARFSGSGSGTEFTLTISSLQSEDFAVYYCQQYNNWPRTFGQGTKVEIK
B23: anti-SARS-CoV-2 antibody 1027 (antibody, V domains shown)
VH: EVQLVESGGGLVQPGGSLRLSCAASGFTVSSNYMSWVRQAPGKGLEWVSIIYSGGSTFYADSVKGRFTISRDSSKNTLYLQMSSLRAEDTAVYYCARDLDYYGMDVWGQGTTVTVSS
VL: DIQLTQSPSFLSAPVGDRVTITCRASQGISSYLAWYQQKPGKAPKLLIYGASTLQSGVPSRFSGSGSGTEFTLTISSLQPEDFATYYCQQLNSYQRFTFGPGTKVEIK

Each binder was assayed against SARS-CoV-2 full length spike protein, V483A mutant (SARS-CoV-2, UniProt P0DTC2 14-1273).
For B1, the “median fold over isotype” value was 2.59 fold over isotype. B2 was tested, and the “median fold over isotype” value was 10.1 fold over isotype. B3 was tested, and the “median fold over isotype” value was 18.9 fold over isotype. With B4 the “median fold over isotype” value was 11.4 fold over isotype. With B5 the “median fold over isotype” value was 7.35 fold over isotype. B6 was tested, and the “median fold over isotype” value was 14.8 fold over isotype. With B7 the “median fold over isotype” value was 4.86 fold over isotype. With B8 the “median fold over isotype” value was 14.3 fold over isotype. With B9 the “median fold over isotype” value was 3.74 fold over isotype. With B10 the “median fold over isotype” value was 8.92 fold over isotype. In the case of B11, the “median fold over isotype” value is reported as 1.6 fold over isotype.

What follows are binders tested against SARS-CoV-2 spike protein with D614G mutation (SARS-CoV-2, UniProt P0DTC2 14-1208).
B12 gave a Kd of 0.041 nM. In the case of B13, the Kd is reported as 0.016 nM. B14 showed a Kd of 0.022 nM. Work on B15 yielded a Kd of 1.3 nM. In the case of B16, the Kd is reported as 0.034 nM. B17 was tested, and the Kd was 0.02 nM. B18 showed a Kd of 29 nM. For B19, the Kd was 0.039 nM. For B20, the Kd was 0.027 nM. In the case of B21, the Kd is reported as 0.023 nM. Binder B22 has a Kd of 0.023 nM. B23 showed a Kd of 0.043 nM.
